Reference: publication PMC11116822, “Nuclear factor Y-A3b binds to the SINGLE FLOWER TRUSS promoter and regulates flowering time in tomato”

T1: SlNF-YA3b (MBP-6His fusion) (Solanum lycopersicum (tomato) cv. AC)
T1 chain: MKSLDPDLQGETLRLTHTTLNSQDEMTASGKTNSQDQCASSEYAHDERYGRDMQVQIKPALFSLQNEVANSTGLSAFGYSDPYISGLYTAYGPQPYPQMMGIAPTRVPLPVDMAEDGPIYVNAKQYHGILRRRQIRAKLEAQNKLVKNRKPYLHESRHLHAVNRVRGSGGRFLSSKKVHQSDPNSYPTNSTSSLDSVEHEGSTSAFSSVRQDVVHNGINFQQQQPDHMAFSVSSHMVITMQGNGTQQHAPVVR


What was measured:
[1] = molecular target: T1, SlNF-YA3b (MBP-6His fusion); test: EMSA; EMSA on non-denaturing gels, FAM probes; buffer, salt, pH and temperature not stated; details: protein: recombinant; tags: MBP; 6xHis; label: FAM on forward strand (probe); blunt
[2] = molecular target: T1, SlNF-YA3b (MBP-6His fusion); test: competition; 10- and 30-fold excess vs FAM box 2; EMSA on non-denaturing gels, FAM probes; buffer, salt, pH and temperature not stated; details: protein: recombinant; tags: MBP; 6xHis; blunt
[3] = molecular target: T1, SlNF-YA3b (MBP-6His fusion); test: competition; 10- and 30-fold excess vs FAM box 3; EMSA on non-denaturing gels, FAM probes; buffer, salt, pH and temperature not stated; details: protein: recombinant; tags: MBP; 6xHis; blunt
[4] = molecular target: T1, SlNF-YA3b (MBP-6His fusion); test: competition; 10- and 30-fold excess vs FAM box 6; EMSA on non-denaturing gels, FAM probes; buffer, salt, pH and temperature not stated; details: protein: recombinant; tags: MBP; 6xHis; blunt
[5] = molecular target: T1, SlNF-YA3b (MBP-6His fusion); test: competition; 10- and 30-fold excess vs FAM box 1; EMSA on non-denaturing gels, FAM probes; buffer, salt, pH and temperature not stated; details: protein: recombinant; tags: MBP; 6xHis; blunt
[6] = molecular target: T1, SlNF-YA3b (MBP-6His fusion); test: competition; 10- and 30-fold excess vs FAM box 5; EMSA on non-denaturing gels, FAM probes; buffer, salt, pH and temperature not stated; details: protein: recombinant; tags: MBP; 6xHis; blunt
[7] = molecular target: T1, SlNF-YA3b (MBP-6His fusion); test: competition; 10- and 30-fold excess vs FAM box 7; EMSA on non-denaturing gels, FAM probes; buffer, salt, pH and temperature not stated; details: protein: recombinant; tags: MBP; 6xHis; blunt
[8] = molecular target: T1, SlNF-YA3b (MBP-6His fusion); test: competition; 10- and 30-fold excess vs FAM box 4; EMSA on non-denaturing gels, FAM probes; buffer, salt, pH and temperature not stated; details: protein: recombinant; tags: MBP; 6xHis; blunt

| Binder | binding result [1] | further results |
| --- | --- | --- |
| SFT-box2 (dsDNA) DNA 1: TAGGGGTAAGGGTAAAATATTGGAAAAATCATTTAAATAT DNA 2: ATATTTAAATGATTTTTCCAATATTTTACCCTTACCCCTA | binds | – |
| SFT-box2-m (dsDNA) DNA 1: TAGGGGTAAGGGTAAAATAAAAAAAAAATCATTTAAATAT DNA 2: ATATTTAAATGATTTTTTTTTTATTTTACCCTTACCCCTA | – | binding result [2]: no binding |
| SFT-box3 (dsDNA) DNA 1: GTTAGATTGAAGTTAGTAATTGGTTATCCCACCGATGGATT DNA 2: AATCCATCGGTGGGATAACCAATTACTAACTTCAATCTAAC | binds | – |
| SFT-box3-m (dsDNA) DNA 1: GTTAGATTGAAGTTAGTATTTTTTTATCCCACCGATGGATT DNA 2: AATCCATCGGTGGGATAAAAAAATACTAACTTCAATCTAAC | – | binding result [3]: no binding |
| SFT-box6-m (dsDNA) DNA 1: CCCTTCACCTTAGCATCAAAAAATAGGATTTACTACGAG DNA 2: CTCGTAGTAAATCCTATTTTTTGATGCTAAGGTGAAGGG | – | binding result [4]: no binding |
| SFT-box6 (dsDNA) DNA 1: CCCTTCACCTTAGCATCACCAATTAGGATTTACTACGAG DNA 2: CTCGTAGTAAATCCTAATTGGTGATGCTAAGGTGAAGGG | binds | – |
| SFT-box1 (dsDNA) DNA 1: GAATCAAGACACGATGATATTGGGACGCTTTGGGGTGTAT DNA 2: ATACACCCCAAAGCGTCCCAATATCATCGTGTCTTGATTC | binds | – |
| SFT-box1-m (dsDNA) DNA 1: GAATCAAGACACGATGATTTTTTGACGCTTTGGGGTGTAT DNA 2: ATACACCCCAAAGCGTCAAAAAATCATCGTGTCTTGATTC | – | binding result [5]: no binding |
| SFT-box7 (dsDNA) DNA 1: AGTTAGATCAGGCCGGCCCAATAGACCTAATCCATAGTG DNA 2: CACTATGGATTAGGTCTATTGGGCCGGCCTGATCTAACT | binds | – |
| SFT-box5-m (dsDNA) DNA 1: ATGTTTTATCATAAAAATAAAAAATGTTTTTAATATTAATC DNA 2: GATTAATATTAAAAACATTTTTTATTTTTATGATAAAACAT | – | binding result [6]: no binding |
| SFT-box5 (dsDNA) DNA 1: ATGTTTTATCATAAAAATATTGGATGTTTTTAATATTAATC DNA 2: GATTAATATTAAAAACATCCAATATTTTTATGATAAAACAT | binds | – |
| SFT-box7-m (dsDNA) DNA 1: AGTTAGATCAGGCCGGCGGGGGAGACCTAATCCATAGTG DNA 2: CACTATGGATTAGGTCTCCCCCGCCGGCCTGATCTAACT | – | binding result [7]: no binding |
| SFT-box4-m (dsDNA) DNA 1: TTAAATTATGTTTTCTTGGGGGGGGTTTCATTCCTTATTTA DNA 2: TAAATAAGGAATGAAACCCCCCCCAAGAAAACATAATTTAA | – | binding result [8]: no binding |
| SFT-box4 (dsDNA) DNA 1: TTAAATTATGTTTTCTTGATTGGGGTTTCATTCCTTATTTA DNA 2: TAAATAAGGAATGAAACCCCAATCAAGAAAACATAATTTAA | binds | – |
